Laboratory results taken from CN115057931A (GUANGZHOU YUHENG BIOTECHNOLOGY CO LTD, dated 2022).

How the values were obtained:
[1] = target: T1, human LAG-3, full length, on transfected cells (human, UniProt P18627 23-525); experiment: cell-based or functional assay
T1 sequence: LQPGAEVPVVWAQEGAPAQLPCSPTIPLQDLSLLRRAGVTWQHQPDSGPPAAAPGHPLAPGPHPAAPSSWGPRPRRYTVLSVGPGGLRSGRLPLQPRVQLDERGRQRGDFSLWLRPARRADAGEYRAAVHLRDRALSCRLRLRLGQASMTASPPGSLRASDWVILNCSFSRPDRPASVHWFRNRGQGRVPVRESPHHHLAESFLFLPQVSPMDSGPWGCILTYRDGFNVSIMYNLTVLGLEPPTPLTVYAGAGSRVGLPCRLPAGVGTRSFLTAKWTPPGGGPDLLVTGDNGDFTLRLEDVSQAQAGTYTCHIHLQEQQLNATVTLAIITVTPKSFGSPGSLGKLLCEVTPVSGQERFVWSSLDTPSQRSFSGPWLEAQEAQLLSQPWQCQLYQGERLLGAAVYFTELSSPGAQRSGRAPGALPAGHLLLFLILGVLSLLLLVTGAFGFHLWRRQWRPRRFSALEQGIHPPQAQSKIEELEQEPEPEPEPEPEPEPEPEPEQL

[2] = target: T2, cynomolgus LAG-3 on 293F cells (cynomolgus monkey); experiment: FACS on 293F cells expressing cynomolgus LAG-3
T2 construct: whole, on cells; also called 食蟹猴LAG-3; 细胞表面食蟹猴LAG-3

human CD4 = target: T3, human CD4 (human, UniProt P01730 26-390, limits assumed); experiment: ELISA, plate coated with 1 μg/mL human CD4
T3 construct: also called 人CD4蛋白

[3] = target: T4, mouse LAG-3 on Flp-In-CHO cells (mouse, UniProt Q61790 24-521); experiment: FACS on Flp-In-CHO cells expressing mouse LAG-3
T4 construct: whole, on cells; also called 鼠LAG-3; 细胞表面小鼠LAG-3
T4 sequence (looked up): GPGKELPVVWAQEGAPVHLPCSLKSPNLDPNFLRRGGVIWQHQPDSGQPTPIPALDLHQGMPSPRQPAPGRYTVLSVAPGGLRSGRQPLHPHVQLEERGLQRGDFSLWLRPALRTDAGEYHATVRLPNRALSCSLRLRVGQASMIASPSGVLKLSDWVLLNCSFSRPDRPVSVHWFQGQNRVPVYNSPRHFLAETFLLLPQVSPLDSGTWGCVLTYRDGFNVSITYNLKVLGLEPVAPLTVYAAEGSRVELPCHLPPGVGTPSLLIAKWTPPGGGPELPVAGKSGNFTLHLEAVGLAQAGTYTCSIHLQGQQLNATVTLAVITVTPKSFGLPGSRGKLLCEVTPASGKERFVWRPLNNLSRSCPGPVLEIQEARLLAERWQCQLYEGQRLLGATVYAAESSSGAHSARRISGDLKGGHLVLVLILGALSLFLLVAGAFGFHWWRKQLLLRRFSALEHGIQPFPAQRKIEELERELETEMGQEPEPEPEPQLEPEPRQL

B1: 3.40.19-uAb-IgG4L (antibody, V domains shown)
VH: QLQLQESGPGLVKPSETLSLTCTVSGDSISSTSYYWGWIRQPPGKGLEWIGSFYYSGSTYYNPSLKSRVTISVDTSKNQFSLKLNSVTAADTAVYYCARMQLWSYDVDVWGQGTTVTVSS
VL: QSALTQPASVSGSPGQSITISCTGTSSDVGGYDYVAWYQQHPGKVPKLMIYDVSERPSGVSNRFSGSKSGNTASLTISGLQAEDEADYYCSSYTSTTTLVVFGGGTKLSVL
notes: Fully human antibody from OMT rats; also called 3.40.19-uAb-hIgG4L
EC50(nM), IL-2 luciferase reporter in Jurkat cells expressing human LAG-3 with Raji cells and SEE [1]: 0.21 nM
EC50 [2]: 3.92 nM
binding result (human CD4): no binding (tested: 1μg/mL)

B2: 1.53.3-uAb-IgG4k (antibody, V domains shown)
VH: QVQLQQWGAGLLKPSETLSLTCGVYGGSFSGYYWSWIRQPPGMGLEWIGEINHRGNTNYNPSLKSRVTISEDTSKNQFSLRLSSVTAADTAVYFCTRGEDYSDYDYYGDFWGQGTLVTVSS
VL: EIVLTQSPATLSLSQGERATLSCRASQSISSYLAWYQQKPGQAPRLLIYAASNRATGIPARFSGSGSGTDFTLTISSLEPEDFAIYYCQQRSNWPLTFGGGTKVEIK
notes: Fully human antibody from OMT rats; the other pair 15/16 goes with CDRs 7-12 in CLM-00002
EC50(nM), IL-2 luciferase reporter in Jurkat cells expressing human LAG-3 with Raji cells and SEE [1]: 1.07 nM
EC50 [2]: 4.01 nM
binding result [3]: no binding
binding result (human CD4): no binding (tested: 1μg/mL)
